13 molecules from patent publication US20250352661A1 (MYTHIC THERAPEUTICS, published 2025) can be followed below.

The assay concerns the target T1, Human LRRC15 Protein, His Tag (Acro Biosystems) (human, UniProt Q8TF66 22-538, limits assumed).
T1 construct: Bought protein with His tag
T1 sequence (looked up): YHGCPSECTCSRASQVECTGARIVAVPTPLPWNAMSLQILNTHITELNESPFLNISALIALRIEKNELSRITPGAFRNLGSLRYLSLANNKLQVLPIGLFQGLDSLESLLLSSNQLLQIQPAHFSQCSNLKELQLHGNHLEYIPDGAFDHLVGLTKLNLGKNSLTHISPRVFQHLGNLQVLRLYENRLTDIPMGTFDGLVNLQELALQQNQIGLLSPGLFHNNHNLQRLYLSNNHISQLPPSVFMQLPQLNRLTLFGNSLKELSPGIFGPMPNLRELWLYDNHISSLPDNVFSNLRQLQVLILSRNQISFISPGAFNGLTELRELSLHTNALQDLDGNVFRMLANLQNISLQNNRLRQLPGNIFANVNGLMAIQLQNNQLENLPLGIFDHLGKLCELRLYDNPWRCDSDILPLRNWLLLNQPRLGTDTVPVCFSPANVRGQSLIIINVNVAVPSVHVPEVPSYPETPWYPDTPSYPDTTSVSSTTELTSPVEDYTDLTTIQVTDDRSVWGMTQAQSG
Nature of the assay: BLI; dissociation pH 7.4 black, pH 5.4 grey [D00010 FIG. 1H]. The source says:
For each individual plot, antigen binding proteins were captured on anti-human Fc biosensors and associated with LRRC15 at pH 7.4. Dissociation was at pH 7.4 (black) or pH 5.4 (grey). Major X-axis ticks=100 seconds, with left dashed vertical line=0 seconds. Major Y-axis ticks=0.5 nm and octet plots are shown MYT5712 and MYT6080-MYT6121.
Multiple LRRC15-binding monoclonal antibodies have been described in the literature and can be used as a template for engineering pH-dependent binding. We selected discovery RabMAb clone 15G7 (rabbit VH SEQ ID NO: 378, rabbit VL SEQ ID NO: 451; humanized VH SEQ ID NO: 382, humanized VL SEQ ID NO: 455) as a LRRC15-binding monoclonal antibody for pH-engineering via histidine scanning. […] To generate pH-dependent sequence variants, individual amino acid residues within the heavy chain CDRs were systematically substituted with a histidine (or alanine if H was already present in a given position; e.g., MYT6099), one at a time (rabbit, MYT6080-6121). Desirable mutations were transferred to a humanized framework (humanized, MYT 8387-8411). After allowing for four days of protein expression, cell culture supernatants were collected, quantified by SDS-PAGE analysis, and the pH dependence of the variant was evaluated using biolayer interferometry (BLI) on an Octet RED 96e instrument. Briefly, cell culture supernatants were diluted based on qualitative expression level of the variant determined by visual examination of SDS-PAGE gels, 5 μL of cell culture supernatant was diluted into 195 μL of 1×PBST, pH 7.4 for high expressors, 25 μL of cell culture supernatant was diluted into 175 μL of 1×PBST, pH 7.4 for medium expressors and 100 μL of cell culture supernatant was diluted into 100 μL of 1×PBST, pH 7.4 for low expressors for loading onto the sensor tips.
For orientation: Biolayer interferometry detects binding as a change in optical thickness at a sensor tip.

B1: MYT8423 (antibody, V domains shown)
VH: EVQLVESGGGLVQPGGSLRLSCTASGLDFRRTNYICWVRQAPGKGLEWVGCIYIADVVHYYASWAKGRFTFSRDTSKNTVYLQMNSLRAEDTAVYYCARGADGGFVYGMDLWGQGTLVTVSS
VL: EIVMTQSPSTLSASVGDRVIITCQASQSIGNHLSWYQQKPGKAPKRLIYSASTLPSGVPSRFSGSGSGAEFTLTISSLQPDDFATYYCQNNYHLAGYGHPFGQGTKLTVL
notes: hu15G7 VL Y32H, W93H; human Fc
As for B1, the binding result is on record as “no binding (tested: 50 nM LRRC15)”.

B2: MYT8434 (antibody, V domains shown)
VH: EVQLVESGGGLVQPGGSLRLSCTASGLDFRRTNYICWVRQAPGKGLEWVGCIYIADVVHYYASWAKGRFTFSRDTSKNTVYLQMNSLRAEDTAVYYCARGADGGFVYGMDLWGQGTLVTVSS
VL: EIVMTQSPSTLSASVGDRVIITCQASQSIGNHLSWYQQKPGKAPKRLIYSASTLPSGVPSRFSGSGSGAEFTLTISSLQPDDFATYYCQNNHHLAGYGHPFGQGTKLTVL
notes: hu15G7 VL Y32H, Y92H, W93H; human Fc
In the case of B2, the binding result is on record as “no binding (tested: 50 nM LRRC15)”.

B3: MYT8425 (antibody, V domains shown)
VH: EVQLVESGGGLVQPGGSLRLSCTASGLDFRRTNYICWVRQAPGKGLEWVGCIYIADVVHYYASWAKGRFTFSRDTSKNTVYLQMNSLRAEDTAVYYCARGADGGFVYGMDLWGQGTLVTVSS
VL: EIVMTQSPSTLSASVGDRVIITCQASQSIGNYLSWYQQKPGKAPKRLIYSASTLPSGVPSRFSGSGSGAEFTLTISSLQPDDFATYYCQNNHHLAGYGHPFGQGTKLTVL
notes: hu15G7 VL Y92H, W93H; human Fc
Take B3: the binding result is on record as “binds”.

B4: MYT8429 (antibody, V domains shown)
VH: EVQLVESGGGLVQPGGSLRLSCTASGLDFRRTNYICWVRQAPGKGLEWVGCIYIADVVHYYASWAKGRFTFSRDTSKNTVYLQMNSLRAEDTAVYYCARGADGGFVYGMDLWGQGTLVTVSS
VL: EIVMTQSPSTLSASVGDRVIITCQASQSIHNHLSWYQQKPGKAPKRLIYSASTLPSGVPSRFSGSGSGAEFTLTISSLQPDDFATYYCQNNYHLAGYGHPFGQGTKLTVL
notes: hu15G7 VL G30H, Y32H, W93H; human Fc
Regarding B4, the binding result is given as “no binding (tested: 50 nM LRRC15)”.

B5: MYT8435 (antibody, V domains shown)
VH: EVQLVESGGGLVQPGGSLRLSCTASGLDFRRTNYICWVRQAPGKGLEWVGCIYIADVVHYYASWAKGRFTFSRDTSKNTVYLQMNSLRAEDTAVYYCARGADGGFVYGMDLWGQGTLVTVSS
VL: EIVMTQSPSTLSASVGDRVIITCQASQSIGNHLSWYQQKPGKAPKRLIYSASTLPSGVPSRFSGSGSGAEFTLTISSLQPDDFATYYCQNNHWLAHYGHPFGQGTKLTVL
notes: hu15G7 VL Y32H, Y92H, G96H; human Fc
Take B5: the binding result is listed as “no binding (tested: 50 nM LRRC15)”.

B6: MYT8427 (antibody, V domains shown)
VH: EVQLVESGGGLVQPGGSLRLSCTASGLDFRRTNYICWVRQAPGKGLEWVGCIYIADVVHYYASWAKGRFTFSRDTSKNTVYLQMNSLRAEDTAVYYCARGADGGFVYGMDLWGQGTLVTVSS
VL: EIVMTQSPSTLSASVGDRVIITCQASQSIGNYLSWYQQKPGKAPKRLIYSASTLPSGVPSRFSGSGSGAEFTLTISSLQPDDFATYYCQNNYHLAHYGHPFGQGTKLTVL
notes: hu15G7 VL W93H, G96H; human Fc
For the molecule B6, the binding result was “binds”.

B7: MYT8437 (antibody, V domains shown)
VH: EVQLVESGGGLVQPGGSLRLSCTASGLDFRRTNYICWVRQAPGKGLEWVGCIYIADVVHYYASWAKGRFTFSRDTSKNTVYLQMNSLRAEDTAVYYCARGADGGFVYGMDLWGQGTLVTVSS
VL: EIVMTQSPSTLSASVGDRVIITCQASQSIGNYLSWYQQKPGKAPKRLIYSASTLPSGVPSRFSGSGSGAEFTLTISSLQPDDFATYYCQNNHHLAHYGHPFGQGTKLTVL
notes: hu15G7 VL Y92H, W93H, G96H; human Fc
As to B7, the binding result is “no binding (tested: 50 nM LRRC15)”.

B8: MYT8424 (antibody, V domains shown)
VH: EVQLVESGGGLVQPGGSLRLSCTASGLDFRRTNYICWVRQAPGKGLEWVGCIYIADVVHYYASWAKGRFTFSRDTSKNTVYLQMNSLRAEDTAVYYCARGADGGFVYGMDLWGQGTLVTVSS
VL: EIVMTQSPSTLSASVGDRVIITCQASQSIGNHLSWYQQKPGKAPKRLIYSASTLPSGVPSRFSGSGSGAEFTLTISSLQPDDFATYYCQNNYWLAHYGHPFGQGTKLTVL
notes: hu15G7 VL Y32H, G96H; human Fc
Take B8: the binding result is on record as “binds”.

B9: MYT8430 (antibody, V domains shown)
VH: EVQLVESGGGLVQPGGSLRLSCTASGLDFRRTNYICWVRQAPGKGLEWVGCIYIADVVHYYASWAKGRFTFSRDTSKNTVYLQMNSLRAEDTAVYYCARGADGGFVYGMDLWGQGTLVTVSS
VL: EIVMTQSPSTLSASVGDRVIITCQASQSIHNHLSWYQQKPGKAPKRLIYSASTLPSGVPSRFSGSGSGAEFTLTISSLQPDDFATYYCQNNYWLAHYGHPFGQGTKLTVL
notes: hu15G7 VL G30H, Y32H, G96H; human Fc
Take B9: the binding result is “binds”.

B10: MYT8426 (antibody, V domains shown)
VH: EVQLVESGGGLVQPGGSLRLSCTASGLDFRRTNYICWVRQAPGKGLEWVGCIYIADVVHYYASWAKGRFTFSRDTSKNTVYLQMNSLRAEDTAVYYCARGADGGFVYGMDLWGQGTLVTVSS
VL: EIVMTQSPSTLSASVGDRVIITCQASQSIGNYLSWYQQKPGKAPKRLIYSASTLPSGVPSRFSGSGSGAEFTLTISSLQPDDFATYYCQNNHWLAHYGHPFGQGTKLTVL
notes: hu15G7 VL Y92H, G96H; human Fc
In the case of B10, the binding result is “binds”.

B11: MYT8436 (antibody, V domains shown)
VH: EVQLVESGGGLVQPGGSLRLSCTASGLDFRRTNYICWVRQAPGKGLEWVGCIYIADVVHYYASWAKGRFTFSRDTSKNTVYLQMNSLRAEDTAVYYCARGADGGFVYGMDLWGQGTLVTVSS
VL: EIVMTQSPSTLSASVGDRVIITCQASQSIGNHLSWYQQKPGKAPKRLIYSASTLPSGVPSRFSGSGSGAEFTLTISSLQPDDFATYYCQNNYHLAHYGHPFGQGTKLTVL
notes: hu15G7 VL Y32H, W93H, G96H; human Fc
For B11, the binding result is “no binding (tested: 50 nM LRRC15)”.

B12: MYT8433 (antibody, V domains shown)
VH: EVQLVESGGGLVQPGGSLRLSCTASGLDFRRTNYICWVRQAPGKGLEWVGCIYIADVVHYYASWAKGRFTFSRDTSKNTVYLQMNSLRAEDTAVYYCARGADGGFVYGMDLWGQGTLVTVSS
VL: EIVMTQSPSTLSASVGDRVIITCQASQSIHNYLSWYQQKPGKAPKRLIYSASTLPSGVPSRFSGSGSGAEFTLTISSLQPDDFATYYCQNNYHLAHYGHPFGQGTKLTVL
notes: hu15G7 VL G30H, W93H, G96H; human Fc
Take B12: the binding result was “binds”.

B13: MYT8431 (antibody, V domains shown)
VH: EVQLVESGGGLVQPGGSLRLSCTASGLDFRRTNYICWVRQAPGKGLEWVGCIYIADVVHYYASWAKGRFTFSRDTSKNTVYLQMNSLRAEDTAVYYCARGADGGFVYGMDLWGQGTLVTVSS
VL: EIVMTQSPSTLSASVGDRVIITCQASQSIHNYLSWYQQKPGKAPKRLIYSASTLPSGVPSRFSGSGSGAEFTLTISSLQPDDFATYYCQNNHHLAGYGHPFGQGTKLTVL
notes: hu15G7 VL G30H, Y92H, W93H; human Fc
As for B13, the binding result was “binds”.
